Biological target: mPVR-Ig (extracellular portion of mouse PVR fused to the Fc portion of human IgG1) (mouse)
Assay: SPR

B1: mDNAM1-Ig (extracellular portion of mouse DNAM1 fused to the Fc portion of human IgG1) (Fc fusion)
chain: EETLWDTTVRLSETMTLECVYPLTHNLTQVEWTKNTGTKTVSIAVYNPNHNMHIESNYLHRVHFLNSTVGFRNMSLSFYNASEADIGIYSCLFHAFPNGPWEKKIKVVWSDSFEIAAPSDSYLSAEPGQDVTLTCQLPRTWPVQQVIWEKVQPHQVDILASCNLSQETRYTSKYLRQTRSNCSQGSMKSILIIPNAMAADSGLYRCRSEAITGKNKSFVIRLIITDGGTNKHFILP
  Kd: 5.16 µM
  koff: 0.00259 s⁻¹
  kon: 502 M⁻¹ s⁻¹
